# T1: Human TRβ LBD (His6-E202-D461), purified, liganded with T3 (human, UniProt P10828 202-461)
# T1 construct: range 202-461; Protein of the cocrystal; also called hTRβ LBD; hTR LBD
# T1 sequence: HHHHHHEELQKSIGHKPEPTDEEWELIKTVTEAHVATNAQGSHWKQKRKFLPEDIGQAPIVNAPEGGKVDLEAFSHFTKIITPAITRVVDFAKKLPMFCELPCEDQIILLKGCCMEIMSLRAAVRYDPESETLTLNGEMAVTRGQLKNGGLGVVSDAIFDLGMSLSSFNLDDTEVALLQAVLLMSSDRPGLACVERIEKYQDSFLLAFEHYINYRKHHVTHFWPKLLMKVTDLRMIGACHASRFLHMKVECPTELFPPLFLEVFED
# T2: hTRβ ligand binding domain (hTRβ LBD), in vitro translated, as used in the GST-GRIP1 binding and peptide … (human, UniProt P10828 202-461, limits assumed, [35S]-methionine labelled (in vitro translated))
# T2 construct: domain: LBD; also called TR LBD; TR-LBD
# T2 sequence (looked up): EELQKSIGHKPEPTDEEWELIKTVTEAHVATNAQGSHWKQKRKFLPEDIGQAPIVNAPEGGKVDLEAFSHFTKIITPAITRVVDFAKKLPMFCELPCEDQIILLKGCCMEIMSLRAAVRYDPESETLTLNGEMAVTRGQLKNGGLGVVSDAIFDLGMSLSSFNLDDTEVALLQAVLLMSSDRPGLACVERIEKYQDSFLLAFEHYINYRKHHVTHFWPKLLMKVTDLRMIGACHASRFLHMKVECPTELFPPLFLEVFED
# Assays:
# [1] = target: hTRβ ligand binding domain (hTRβ LBD), in vitro translated, as used in the GST-GRIP1 binding and peptide competition assays (human) (UniProt P10828); test: peptide competition (FIG. 11c)
# [2] = target: hTRβ ligand binding domain (hTRβ LBD), in vitro translated, as used in the GST-GRIP1 binding and peptide competition assays (human) (UniProt P10828); test: titration of the amount of GST-GRIP1 fragment in the pull-down of TR; assigned to the fragment with only NR-box 2 functional
# [3] = target: hTRβ ligand binding domain (hTRβ LBD), in vitro translated, as used in the GST-GRIP1 binding and peptide competition assays (human) (UniProt P10828); test: titration of the amount of GST-GRIP1 fragment in the pull-down of TR
# [4] = target: glucocorticoid receptor (GR), full length; test: peptide competition of GR binding to GRIP1
# glucocorticoid receptor (GR), full length, sequence (P06536 whole entry, the tested form may be a part): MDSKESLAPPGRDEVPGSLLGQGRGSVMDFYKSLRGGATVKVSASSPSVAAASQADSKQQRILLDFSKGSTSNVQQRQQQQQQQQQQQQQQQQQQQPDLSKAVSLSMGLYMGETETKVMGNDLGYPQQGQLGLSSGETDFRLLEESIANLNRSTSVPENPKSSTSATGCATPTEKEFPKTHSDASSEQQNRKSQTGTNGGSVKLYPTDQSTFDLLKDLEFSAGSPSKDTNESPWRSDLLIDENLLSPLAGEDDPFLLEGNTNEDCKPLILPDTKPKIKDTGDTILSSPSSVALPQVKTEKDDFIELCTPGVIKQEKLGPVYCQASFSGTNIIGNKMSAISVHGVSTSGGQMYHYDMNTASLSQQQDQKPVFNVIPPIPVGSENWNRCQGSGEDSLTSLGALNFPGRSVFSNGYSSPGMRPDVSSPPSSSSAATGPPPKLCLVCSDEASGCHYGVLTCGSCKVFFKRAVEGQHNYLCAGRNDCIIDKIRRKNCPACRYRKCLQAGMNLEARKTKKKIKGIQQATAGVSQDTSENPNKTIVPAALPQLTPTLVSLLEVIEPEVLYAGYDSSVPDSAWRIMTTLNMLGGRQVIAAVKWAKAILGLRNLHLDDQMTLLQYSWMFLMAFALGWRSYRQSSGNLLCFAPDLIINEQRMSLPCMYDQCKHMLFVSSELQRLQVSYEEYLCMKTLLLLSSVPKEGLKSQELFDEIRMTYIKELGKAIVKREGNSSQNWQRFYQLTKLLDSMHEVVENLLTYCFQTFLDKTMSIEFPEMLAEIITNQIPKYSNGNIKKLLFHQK
# [5] = target: GST-GRIP1 (GRIP1 amino acids 563-1121) (mouse) (UniProt Q61026); test: GST-GRIP1 pull-down of in vitro translated GR
# [6] = target: GRIP1 563-767 His6 GST fusion protein (mouse) (UniProt Q61026); test: GST-GRIP1 (563-767) pull-down
# GRIP1 563-767 His6 GST fusion protein (mouse), sequence (Q61026 other isoform, or with tags, fused parts or gaps): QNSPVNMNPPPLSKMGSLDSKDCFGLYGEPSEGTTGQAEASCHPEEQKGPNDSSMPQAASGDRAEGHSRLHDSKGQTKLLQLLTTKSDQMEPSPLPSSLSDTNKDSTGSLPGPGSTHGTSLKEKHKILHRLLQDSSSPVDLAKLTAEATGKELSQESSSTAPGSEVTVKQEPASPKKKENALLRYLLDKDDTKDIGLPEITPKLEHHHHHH
# [7] = target: hTRβ ligand binding domain (hTRβ LBD), in vitro translated, as used in the GST-GRIP1 binding and peptide competition assays (human) (UniProt P10828); test: peptide competition of hTRβ LBD binding to GST-GRIP1 (563-767) beads
# [8] = target: hTRβ ligand binding domain (hTRβ LBD), in vitro translated, as used in the GST-GRIP1 binding and peptide competition assays (human) (UniProt P10828); test: titration of the amount of GST-GRIP1 fragment in the pull-down of TR; assigned to the fragment with only NR-box 3 functional
# [9] = target: hTRβ ligand binding domain (hTRβ LBD), in vitro translated, as used in the GST-GRIP1 binding and peptide competition assays (human) (UniProt P10828); test: GST-GRIP1 (563-767) mutant pull-down of in vitro translated TR
# [10] = target: T1, Human TRβ LBD (His6-E202-D461), …; test: cocrystallisation and X-ray structure, 3.6 Å, T3-liganded
# Protocol: Possible rotation function solutions were calculated using normalized amplitudes in AMORE from a model of hTRβ LBD with the ligand, T₃, omitted; translation function solutions were subsequently determined using TFFC for the two rotation solutions with the highest correlation coefficients. […] After rigid body refinement of the two hTRβ LBD molecules, electron density maps were calculated.
# [11] = target: T2, hTRβ ligand binding domain (hTRβ LBD), …; test: peptide competition of hTRβ LBD binding to GST-GRIP1 (563-767) beads
# Protocol: Expression was quantified by phosphoimager analysis (BAS2000, Fuji). […] Binding was performed in the binding buffer described above supplemented with 20 μg/ml BSA and appropriate hormone. […] The reaction was incubated at 4° C. under rotation for 2 hours. In case of competition experiments, the appropriate concentration of peptides were added to the reaction before addition of receptors. […] Beads were washed five times with 200 μl binding buffer+BSA at 4° C. before elution of the bound proteins in 20 μl SDS loading buffer. Eluted beads and input labeled protein were subjected to SDS-PAGE. The fraction of bound nuclear receptors was determined by phosphoimager analysis.
# GRIP1, full-length [12] = target: T3, GRIP1, full-length (mouse, UniProt Q61026 5-1462, limits assumed, [35S]-Met labelled in the pull-down assays (in vitro translated from pSG5-GRIP1)); test: cell-based or functional assay
# T3 sequence (Q61026 5-1462 limits assumed): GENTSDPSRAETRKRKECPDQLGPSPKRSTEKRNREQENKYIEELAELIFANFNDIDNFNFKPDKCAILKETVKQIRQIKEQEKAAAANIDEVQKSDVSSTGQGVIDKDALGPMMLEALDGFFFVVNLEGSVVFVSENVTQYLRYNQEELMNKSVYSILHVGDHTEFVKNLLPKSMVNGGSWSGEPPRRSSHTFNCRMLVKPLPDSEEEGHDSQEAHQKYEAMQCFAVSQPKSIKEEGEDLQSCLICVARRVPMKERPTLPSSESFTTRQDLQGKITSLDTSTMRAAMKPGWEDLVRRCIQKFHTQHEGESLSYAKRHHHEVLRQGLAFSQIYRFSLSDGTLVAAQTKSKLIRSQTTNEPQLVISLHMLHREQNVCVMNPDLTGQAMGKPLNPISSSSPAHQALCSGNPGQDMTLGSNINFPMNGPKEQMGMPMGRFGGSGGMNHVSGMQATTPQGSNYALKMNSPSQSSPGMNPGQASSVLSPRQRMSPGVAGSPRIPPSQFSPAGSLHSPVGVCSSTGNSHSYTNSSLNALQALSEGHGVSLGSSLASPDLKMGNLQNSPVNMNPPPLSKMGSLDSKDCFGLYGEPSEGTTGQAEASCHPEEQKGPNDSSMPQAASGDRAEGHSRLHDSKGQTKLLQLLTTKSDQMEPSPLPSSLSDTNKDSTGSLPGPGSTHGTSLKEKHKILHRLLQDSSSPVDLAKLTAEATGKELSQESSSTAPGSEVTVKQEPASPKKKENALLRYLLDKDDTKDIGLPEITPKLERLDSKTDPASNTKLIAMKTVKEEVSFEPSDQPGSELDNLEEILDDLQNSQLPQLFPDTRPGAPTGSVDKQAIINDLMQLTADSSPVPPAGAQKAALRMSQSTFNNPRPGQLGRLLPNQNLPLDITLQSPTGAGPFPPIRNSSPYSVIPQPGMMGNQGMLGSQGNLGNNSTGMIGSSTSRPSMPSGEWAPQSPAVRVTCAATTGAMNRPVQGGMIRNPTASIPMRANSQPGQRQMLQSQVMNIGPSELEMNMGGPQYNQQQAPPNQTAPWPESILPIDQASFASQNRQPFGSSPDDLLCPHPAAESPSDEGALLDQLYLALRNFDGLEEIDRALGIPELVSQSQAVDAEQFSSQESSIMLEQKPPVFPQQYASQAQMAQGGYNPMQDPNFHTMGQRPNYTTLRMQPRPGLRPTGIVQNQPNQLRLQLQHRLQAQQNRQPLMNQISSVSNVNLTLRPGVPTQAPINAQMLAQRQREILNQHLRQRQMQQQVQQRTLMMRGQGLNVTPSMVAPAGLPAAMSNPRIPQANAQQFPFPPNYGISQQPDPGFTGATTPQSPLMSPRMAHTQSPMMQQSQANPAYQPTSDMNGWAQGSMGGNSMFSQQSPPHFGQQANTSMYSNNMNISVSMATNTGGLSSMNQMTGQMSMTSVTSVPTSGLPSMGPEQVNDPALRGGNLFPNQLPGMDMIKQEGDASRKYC
# GRIP1, full-length [13] = target: T3, GRIP1, full-length; test: GST-hERα LBD pull-down of 35S-GRIP1, 1 µM DES
# Protocol: (§1) The wild-type and mutant GST-hERα LBDs were expressed in BL21(DE3) cells. […] Cleared extracts containing the GST-hERα LBDs were incubated in buffer alone (50 mM Tris, pH 7.4, 150 mM NaCl, 2 mM EDTA, 1 mM DTT, 0.5% NP-40 and a protease inhibitor cocktail) or with 1 μM of either DES or OHT for 1 hour at 4° C. Extract samples containing thirty pmol of GST-LBD were then incubated with 10 μl glutathioneSepharose-4B beads (Pharmacia) for 1 hour at 4° C. […] Immobilized GSThERα LBDs were incubated for 2.5 hours with 2.5 μl aliquots of crude translation reaction mixture diluted in 300 μl of Tris-buffered saline (TBS). After five washes in TBS containing 0.05% NP-40, proteins were eluted by boiling the beads for 10 minutes in sample buffer.
# GRIP1, full-length [14] = target: T3, GRIP1, full-length; test: GST-hERα LBD pull-down of 35S-GRIP1, no ligand or 1 µM OHT
# Protocol: as §1
molecule,measurement,setting,value
NR-box 2 peptide with the isoleucine of NR-box 2 replaced by phenylalanine,fold reduction of affinity against the NR-box 2 peptide,[1],10 fold
GST-GRIP1 (563-767) His6 with non-functional NR-box 3 (hydrophobic residues of NR-box 3 replaced with alanine) (from UniProt Q61026 563-767),EC50,[2],1 µM
same,fold stronger binding of TR for NR-box 2 over NR-box 3,[3],4 fold
peptide containing the p53 binding site (FxxLW motif),fold weaker binding than a peptide containing NR-box 3,[4],10 fold
peptide containing the VP16 binding site (FxxAL motif),fold weaker binding than a peptide containing NR-box 3,[4],10 fold
"glucocorticoid receptor (GR), full length",fold increase of binding against GRIP1 (563-767),[5],3 fold
same,affinity as a fraction of that of TR,[6],0.2 fold of TR
peptide containing GRIP1 NR-box 1,EC50,[7],130 µM
GST-GRIP1 (563-767) His6 with non-functional NR-box 2 (hydrophobic residues of NR-box 2 replaced with alanine) (from UniProt Q61026 563-767),EC50,[8],4 µM
same,loss of TR binding,[9],50%
KHKILHRLLQDSS (also called GRIP1 site 2 peptide) [GRIP1 NR-box 2 peptide 686-KHKILHRLLQDSS-698],binding result,[10],binds
ENALLRYLLDKDD [GRIP1 NR-box 3 peptide ENALLRYLLDKDD],EC50,[11],4 µM
EKHKILHRLLQDS (also called original NR-box 2 peptide) [GRIP1 NR-box 2 peptide EKHKILHRLLQDS],EC50,[11],1.5 µM
"human thyroid hormone receptor β1 (hTRβ1), full-length 461 amino acids, wild type (receptor, UniProt P10828 1-461, looked up, [35S]-Met labelled (in vitro translated)) MTPNSMTENGLTAWDKPKHCPDREHDWKLVGMSEACLHRKSHSERRSTLKNEQSSPHLIQTTWTSSIFHLDHDDVNDQSVSSAQTFQTEEKKCKGYIPSYLDKDELCVVCGDKATGYHYRCITCEGCKGFFRRTIQKNLHPSYSCKYEGKCVIDKVTRNQCQECRFKKCIYVGMATDLVLDDSKRLAKRKLIEENREKRRREELQKSIGHKPEPTDEEWELIKTVTEAHVATNAQGSHWKQKRKFLPEDIGQAPIVNAPEGGKVDLEAFSHFTKIITPAITRVVDFAKKLPMFCELPCEDQIILLKGCCMEIMSLRAAVRYDPESETLTLNGEMAVTRGQLKNGGLGVVSDAIFDLGMSLSSFNLDDTEVALLQAVLLMSSDRPGLACVERIEKYQDSFLLAFEHYINYRKHHVTHFWPKLLMKVTDLRMIGACHASRFLHMKVECPTELFPPLFLEVFED",T3-dependent reporter gene activity in HeLa cells,"GRIP1, full-length [12]",5 fold
"GST-hERα LBD (282-595) E542K (receptor, not shown: GST carrier (pGEX-3X) at the N end and its linker) SAGDMRAANLWPSPLMIKRSKKNSLALSLTADQMVSALLDAEPPILYSEYDPTRPFSEASMMGLLTNLADRELVHMINWAKRVPGFVDLTLHDQVHLLECAWLEILMIGLVWRSMEHPGKLLFAPNLLLDRNQGKCVEGMVEIFDMLLATSSRFRMMNLQGEEFVCLKSIILLNSGVYTFLSSTLKSLEEKDHIHRVLDKITDTLIHLMAKAGLTLQQQHQRLAQLLLILSHIRHMSNKGMEHLYSMKCKNVVPLYDLLLKMLDAHRLHAPTSRGGASVEETDQSHLATAGSTSSHSLQKYYITGEAEGFPATV",binding result,"GRIP1, full-length [13]",no binding
"GST-hERα LBD (282-595) K362A (receptor, not shown: GST carrier (pGEX-3X) at the N end and its linker) SAGDMRAANLWPSPLMIKRSKKNSLALSLTADQMVSALLDAEPPILYSEYDPTRPFSEASMMGLLTNLADRELVHMINWAARVPGFVDLTLHDQVHLLECAWLEILMIGLVWRSMEHPGKLLFAPNLLLDRNQGKCVEGMVEIFDMLLATSSRFRMMNLQGEEFVCLKSIILLNSGVYTFLSSTLKSLEEKDHIHRVLDKITDTLIHLMAKAGLTLQQQHQRLAQLLLILSHIRHMSNKGMEHLYSMKCKNVVPLYDLLLEMLDAHRLHAPTSRGGASVEETDQSHLATAGSTSSHSLQKYYITGEAEGFPATV",binding result,"GRIP1, full-length [13]",no binding
"GST-hERα LBD (282-595) L539R (receptor, not shown: GST carrier (pGEX-3X) at the N end and its linker) SAGDMRAANLWPSPLMIKRSKKNSLALSLTADQMVSALLDAEPPILYSEYDPTRPFSEASMMGLLTNLADRELVHMINWAKRVPGFVDLTLHDQVHLLECAWLEILMIGLVWRSMEHPGKLLFAPNLLLDRNQGKCVEGMVEIFDMLLATSSRFRMMNLQGEEFVCLKSIILLNSGVYTFLSSTLKSLEEKDHIHRVLDKITDTLIHLMAKAGLTLQQQHQRLAQLLLILSHIRHMSNKGMEHLYSMKCKNVVPLYDRLLEMLDAHRLHAPTSRGGASVEETDQSHLATAGSTSSHSLQKYYITGEAEGFPATV",binding result,"GRIP1, full-length [14]",no binding
"GST-hERα LBD (282-595) I358R (receptor, not shown: GST carrier (pGEX-3X) at the N end and its linker) SAGDMRAANLWPSPLMIKRSKKNSLALSLTADQMVSALLDAEPPILYSEYDPTRPFSEASMMGLLTNLADRELVHMRNWAKRVPGFVDLTLHDQVHLLECAWLEILMIGLVWRSMEHPGKLLFAPNLLLDRNQGKCVEGMVEIFDMLLATSSRFRMMNLQGEEFVCLKSIILLNSGVYTFLSSTLKSLEEKDHIHRVLDKITDTLIHLMAKAGLTLQQQHQRLAQLLLILSHIRHMSNKGMEHLYSMKCKNVVPLYDLLLEMLDAHRLHAPTSRGGASVEETDQSHLATAGSTSSHSLQKYYITGEAEGFPATV",binding result,"GRIP1, full-length [14]",no binding
"GST-hERα LBD (282-595) V376R (receptor, not shown: GST carrier (pGEX-3X) at the N end and its linker) SAGDMRAANLWPSPLMIKRSKKNSLALSLTADQMVSALLDAEPPILYSEYDPTRPFSEASMMGLLTNLADRELVHMINWAKRVPGFVDLTLHDQRHLLECAWLEILMIGLVWRSMEHPGKLLFAPNLLLDRNQGKCVEGMVEIFDMLLATSSRFRMMNLQGEEFVCLKSIILLNSGVYTFLSSTLKSLEEKDHIHRVLDKITDTLIHLMAKAGLTLQQQHQRLAQLLLILSHIRHMSNKGMEHLYSMKCKNVVPLYDLLLEMLDAHRLHAPTSRGGASVEETDQSHLATAGSTSSHSLQKYYITGEAEGFPATV",binding result,"GRIP1, full-length [14]",no binding
